The labels stand for the following.
T1: human BCMA (human, UniProt Q02223 1-184)
T1 construct: whole, on cells; also called hBCMA; TNFRSF17
T1 sequence (looked up): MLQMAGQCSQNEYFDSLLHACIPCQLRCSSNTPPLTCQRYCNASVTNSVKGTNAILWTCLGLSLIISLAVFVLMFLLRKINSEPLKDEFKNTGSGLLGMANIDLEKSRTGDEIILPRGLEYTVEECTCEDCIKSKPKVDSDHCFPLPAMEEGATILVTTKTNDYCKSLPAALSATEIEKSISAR

B1: PR001999 (bispecific antibody, IgG1)
chain 1: QAVVTQEPSLTVSPGGTVTLTCRSSTGAVTTSNYANWVQQKPGQAPRGLIGGTNKRAPWTPARFSGSLLGDKAALTLLGAQPEDEAEYFCALWYSNLWVFGGGTKLTVLGGGQSGQGGSGGGGSEVQLVESGGGLVQPGGSLKLSCAASGFTFNTYAMNWVRQASGKGLEWVGRIRSKYNNYATYYADSVKDRFTISRDDSKSTLYLQMNSLKTEDTAVYYCVRHGNFGNSYVSWFAYWGQGTLVTVSSASEPKSSDKTHTCPPCPAPEAAGGPSVFLFPPKPKDTLMISRTPEVTCVVVDVSHEDPEVKFNWYVDGVEVHNAKTKPREEQYNSTYRVVSVLTVLHQDWLNGKEYKCKVSNKALGAPIEKTISKAKGQPREPQVYTLPPCREEMTKNQVSLWCLVKGFYPSDIAVEWESNGQPENNYKTTPPVLDSDGSFFLYSKLTVDKSRWQQGNVFSCSVMHEALHNHYTQKSLSLSPGK
chain 2: EVQLLESGGGLVQPGGSLRLSCAASGFTFSSYAMIWVRQAPGKGLEWVSGISESGGSTYYADSVKGRFTISRDNSKNTLYLQMNSLRAEDTAVYFCVKDLDDILTGYYKDYWGQGTLVTVSSASEPKSSDKTHTCPPCPAPEAAGGPSVFLFPPKPKDTLMISRTPEVTCVVVDVSHEDPEVKFNWYVDGVEVHNAKTKPREEQYNSTYRVVSVLTVLHQDWLNGKEYKCKVSNKALGAPIEKTISKAKGQPREPQVCTLPPSREEMTKNQVSLSCAVKGFYPSDIAVEWESNGQPENNYKTTPPVLDSDGSFFLVSKLTVDKSRWQQGNVFSCSVMHEALHNHYTQKSLSLSPGK
notes: CD3 scFv of PR000510, BCMA VH of PR000940; IgG1 knob/hole, AAG
B2: PR003872 (bispecific antibody, human IgG1, lambda, L234A L235A)
light: QAVVTQEPSLTVSPGGTVTLTCRSSTGAVTTSNYANWVQQKPGQAPRGLIGGTNKRAPWTPARFSGSLLGDKAALTLLGAQPEDEAEYFCALWYSNLWVFGGGTKLTVLGQPKAAPSVTLFPPSSEELQANKATLVCLISDFYPGAVTVAWKADSSPVKAGVETTTPSKQSNNKYAASSYLSLTPEQWKSHRSYSCQVTHEGSTVEKTVAPTECS
heavy: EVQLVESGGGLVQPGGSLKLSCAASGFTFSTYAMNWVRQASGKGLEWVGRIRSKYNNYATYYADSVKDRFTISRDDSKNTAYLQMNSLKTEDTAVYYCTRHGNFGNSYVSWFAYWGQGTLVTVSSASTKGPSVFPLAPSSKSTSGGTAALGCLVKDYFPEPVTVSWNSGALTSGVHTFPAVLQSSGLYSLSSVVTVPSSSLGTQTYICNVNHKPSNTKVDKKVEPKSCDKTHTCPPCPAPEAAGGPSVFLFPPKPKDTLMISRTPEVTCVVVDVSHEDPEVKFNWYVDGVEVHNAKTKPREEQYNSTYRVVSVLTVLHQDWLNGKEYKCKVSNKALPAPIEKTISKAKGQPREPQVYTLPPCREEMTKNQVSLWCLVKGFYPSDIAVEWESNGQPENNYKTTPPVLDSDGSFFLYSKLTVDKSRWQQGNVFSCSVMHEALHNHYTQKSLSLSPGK
chain: EVQLVETGGGLIQPGGSLRLSCAASGFTVSDSYMTWVRQAPGKGLEWVSVIFSGGKTYVADSVKGRFTISRDNAKNTLYLQMNSLRAEDTALYYCARRNYDQTRGTDVFDIWGQGTMVTVSSASEPKSSDKTHTCPPCPAPEAAGGPSVFLFPPKPKDTLMISRTPEVTCVVVDVSHEDPEVKFNWYVDGVEVHNAKTKPREEQYNSTYRVVSVLTVLHQDWLNGKEYKCKVSNKALPAPIEKTISKAKGQPREPQVCTLPPSREEMTKNQVSLSCAVKGFYPSDIAVEWESNGQPENNYKTTPPVLDSDGSFFLVSKLTVDKSRWQQGNVFSCSVMHEALHNHYTQKSLSLSPGK
notes: BCMAxCD3, Fab-Fc-VH (structure 11); CD3 Fab of PR003886, BCMA VH of PR004567; IgG1 knob/hole, LALA
B3: PR003874 (bispecific antibody, human IgG1, lambda, L234A L235A)
light: QAVVTQEPSLTVSPGGTVTLTCRSSTGAVTTSNYANWVQQKPGQAPRGLIGGTNKRAPWTPARFSGSLLGDKAALTLLGAQPEDEAEYFCALWYSNLWVFGGGTKLTVLGQPKAAPSVTLFPPSSEELQANKATLVCLISDFYPGAVTVAWKADSSPVKAGVETTTPSKQSNNKYAASSYLSLTPEQWKSHRSYSCQVTHEGSTVEKTVAPTECS
heavy: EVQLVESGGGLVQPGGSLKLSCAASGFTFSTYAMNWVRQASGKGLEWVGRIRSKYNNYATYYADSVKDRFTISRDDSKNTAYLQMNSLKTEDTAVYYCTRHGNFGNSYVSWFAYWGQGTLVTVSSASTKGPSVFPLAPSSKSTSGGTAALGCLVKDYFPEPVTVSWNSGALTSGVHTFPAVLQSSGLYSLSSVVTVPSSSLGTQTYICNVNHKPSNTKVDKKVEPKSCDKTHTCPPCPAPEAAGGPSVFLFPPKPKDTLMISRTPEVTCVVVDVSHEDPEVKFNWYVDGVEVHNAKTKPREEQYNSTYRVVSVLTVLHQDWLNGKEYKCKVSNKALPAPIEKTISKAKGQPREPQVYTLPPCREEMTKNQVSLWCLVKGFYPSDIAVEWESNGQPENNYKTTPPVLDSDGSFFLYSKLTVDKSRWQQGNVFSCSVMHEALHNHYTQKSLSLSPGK
chain: EVQLVETGGGLIQPGGSLRLSCAASGFTVSDSYMTWVRQAPGKGLEWVSVIFSGGRTYYSDSVKGRFTISRDNAKNTLYLQMNSLRAEDTALYYCARRNYDQTRGTDVFDIWGQGTMVTVSSASEPKSSDKTHTCPPCPAPEAAGGPSVFLFPPKPKDTLMISRTPEVTCVVVDVSHEDPEVKFNWYVDGVEVHNAKTKPREEQYNSTYRVVSVLTVLHQDWLNGKEYKCKVSNKALPAPIEKTISKAKGQPREPQVCTLPPSREEMTKNQVSLSCAVKGFYPSDIAVEWESNGQPENNYKTTPPVLDSDGSFFLVSKLTVDKSRWQQGNVFSCSVMHEALHNHYTQKSLSLSPGK
notes: BCMAxCD3, Fab-Fc-VH (structure 11); CD3 Fab of PR003886, BCMA VH of PR004569; IgG1 knob/hole, LALA
B4: PR002002 (bispecific antibody, IgG1)
chain 1: QAVVTQEPSLTVSPGGTVTLTCRSSTGAVTTSNYANWVQQKPGQAPRGLIGGTNKRAPWTPARFSGSLLGDKAALTLLGAQPEDEAEYFCALWYSNLWVFGGGTKLTVLGGGQSGQGGSGGGGSEVQLVESGGGLVQPGGSLKLSCAASGFTFNTYAMNWVRQASGKGLEWVGRIRSKYNNYATYYADSVKDRFTISRDDSKSTLYLQMNSLKTEDTAVYYCVRHGNFGNSYVSWFAYWGQGTLVTVSSASEPKSSDKTHTCPPCPAPEAAGGPSVFLFPPKPKDTLMISRTPEVTCVVVDVSHEDPEVKFNWYVDGVEVHNAKTKPREEQYNSTYRVVSVLTVLHQDWLNGKEYKCKVSNKALGAPIEKTISKAKGQPREPQVYTLPPCREEMTKNQVSLWCLVKGFYPSDIAVEWESNGQPENNYKTTPPVLDSDGSFFLYSKLTVDKSRWQQGNVFSCSVMHEALHNHYTQKSLSLSPGK
chain 2: EVQLVETGGGLIQPGGSLRLSCAASGFTVSDNYMTWVRQAPGKGLEWVSVIFSGGNTYYADSVKGRFTISRDNAKNTLYLQMNSLRAEDTALYYCARRNYDDTRGTDVFDIWGQGTMVTVSSASEPKSSDKTHTCPPCPAPEAAGGPSVFLFPPKPKDTLMISRTPEVTCVVVDVSHEDPEVKFNWYVDGVEVHNAKTKPREEQYNSTYRVVSVLTVLHQDWLNGKEYKCKVSNKALGAPIEKTISKAKGQPREPQVCTLPPSREEMTKNQVSLSCAVKGFYPSDIAVEWESNGQPENNYKTTPPVLDSDGSFFLVSKLTVDKSRWQQGNVFSCSVMHEALHNHYTQKSLSLSPGK
notes: BCMAxCD3, scFv(VL-VH)-Fc-VH (structure 20); CD3 scFv of PR000510, BCMA VH of PR001046; IgG1 knob/hole, AAG
B5: PR001997 (bispecific antibody, IgG1)
chain 1: EVQLLESGGGLVQPGGSLRLSCAASGFTFNTYAMNWVRQAPGKGLEWVSRIRSKYNNYATYYADSVKDRFTISRDDSKSTLYLQMNSLRAEDTAVYYCVRHGNFGNSYVSWFAYWGQGTLVTVSSASTKGPSVFPLAPSSKSTSGGTAALGCLVKDYFPEPVTVSWNSGALTSGVHTFPAVLQSSGLYSLSSVVTVPSSSLGTQTYICNVNHKPSNTKVDKKVEPKSC
chain 2: QAVVTQEPSLTVSPGGTVTLTCRSSTGAVTTSNYANWVQQKPGQAPRGLIGGTNKRAPWTPARFSGSLLGDKAALTLLGAQPEDEAEYFCALWYSNLWVFGGGTKLTVLGQPKAAPSVTLFPPSSEELQANKATLVCLISDFYPGAVTVAWKADSSPVKAGVETTTPSKQSNNKYAASSYLSLTPEQWKSHRSYSCQVTHEGSTVEKTVAPTECSDKTHTCPPCPAPEAAGGPSVFLFPPKPKDTLMISRTPEVTCVVVDVSHEDPEVKFNWYVDGVEVHNAKTKPREEQYNSTYRVVSVLTVLHQDWLNGKEYKCKVSNKALGAPIEKTISKAKGQPREPQVYTLPPCREEMTKNQVSLWCLVKGFYPSDIAVEWESNGQPENNYKTTPPVLDSDGSFFLYSKLTVDKSRWQQGNVFSCSVMHEALHNHYTQKSLSLSPGK
chain 3: EVQLVETGGGLIQPGGSLRLSCAASGFTVSSNYMTWVRQAPGKGLEWVSVIFSGGSTYYADSVKGRFTISRDNSKNTLYLQMNSLRAEDTAVYYCARRIAVAGHDVFDIWGQGTMVTVSSASEPKSSDKTHTCPPCPAPEAAGGPSVFLFPPKPKDTLMISRTPEVTCVVVDVSHEDPEVKFNWYVDGVEVHNAKTKPREEQYNSTYRVVSVLTVLHQDWLNGKEYKCKVSNKALGAPIEKTISKAKGQPREPQVCTLPPSREEMTKNQVSLSCAVKGFYPSDIAVEWESNGQPENNYKTTPPVLDSDGSFFLVSKLTVDKSRWQQGNVFSCSVMHEALHNHYTQKSLSLSPGK
notes: BCMAxCD3, Fab(cross Fd/LC)-Fc-VH (structure 13); CD3 of PR000511, BCMA VH of PR001035; IgG1 knob/hole, AAG
B6: PR001998 (bispecific antibody, IgG1)
chain 1: EVQLLESGGGLVQPGGSLRLSCAASGFTFNTYAMNWVRQAPGKGLEWVSRIRSKYNNYATYYADSVKDRFTISRDDSKSTLYLQMNSLRAEDTAVYYCVRHGNFGNSYVSWFAYWGQGTLVTVSSASTKGPSVFPLAPSSKSTSGGTAALGCLVKDYFPEPVTVSWNSGALTSGVHTFPAVLQSSGLYSLSSVVTVPSSSLGTQTYICNVNHKPSNTKVDKKVEPKSC
chain 2: QAVVTQEPSLTVSPGGTVTLTCRSSTGAVTTSNYANWVQQKPGQAPRGLIGGTNKRAPWTPARFSGSLLGDKAALTLLGAQPEDEAEYFCALWYSNLWVFGGGTKLTVLGQPKAAPSVTLFPPSSEELQANKATLVCLISDFYPGAVTVAWKADSSPVKAGVETTTPSKQSNNKYAASSYLSLTPEQWKSHRSYSCQVTHEGSTVEKTVAPTECSDKTHTCPPCPAPEAAGGPSVFLFPPKPKDTLMISRTPEVTCVVVDVSHEDPEVKFNWYVDGVEVHNAKTKPREEQYNSTYRVVSVLTVLHQDWLNGKEYKCKVSNKALGAPIEKTISKAKGQPREPQVYTLPPCREEMTKNQVSLWCLVKGFYPSDIAVEWESNGQPENNYKTTPPVLDSDGSFFLYSKLTVDKSRWQQGNVFSCSVMHEALHNHYTQKSLSLSPGK
chain 3: EVQLVETGGGLIQPGGSLRLSCAASGFTVSDNYMTWVRQAPGKGLEWVSVIFSGGNTYYADSVKGRFTISRDNAKNTLYLQMNSLRAEDTALYYCARRNYDDTRGTDVFDIWGQGTMVTVSSASEPKSSDKTHTCPPCPAPEAAGGPSVFLFPPKPKDTLMISRTPEVTCVVVDVSHEDPEVKFNWYVDGVEVHNAKTKPREEQYNSTYRVVSVLTVLHQDWLNGKEYKCKVSNKALGAPIEKTISKAKGQPREPQVCTLPPSREEMTKNQVSLSCAVKGFYPSDIAVEWESNGQPENNYKTTPPVLDSDGSFFLVSKLTVDKSRWQQGNVFSCSVMHEALHNHYTQKSLSLSPGK
notes: BCMAxCD3, Fab(cross Fd/LC)-Fc-VH (structure 13); CD3 of PR000511, BCMA VH of PR001046; IgG1 knob/hole, AAG
B7: PR002000 (bispecific antibody, IgG1)
chain 1: QAVVTQEPSLTVSPGGTVTLTCRSSTGAVTTSNYANWVQQKPGQAPRGLIGGTNKRAPWTPARFSGSLLGDKAALTLLGAQPEDEAEYFCALWYSNLWVFGGGTKLTVLGGGQSGQGGSGGGGSEVQLVESGGGLVQPGGSLKLSCAASGFTFNTYAMNWVRQASGKGLEWVGRIRSKYNNYATYYADSVKDRFTISRDDSKSTLYLQMNSLKTEDTAVYYCVRHGNFGNSYVSWFAYWGQGTLVTVSSASEPKSSDKTHTCPPCPAPEAAGGPSVFLFPPKPKDTLMISRTPEVTCVVVDVSHEDPEVKFNWYVDGVEVHNAKTKPREEQYNSTYRVVSVLTVLHQDWLNGKEYKCKVSNKALGAPIEKTISKAKGQPREPQVYTLPPCREEMTKNQVSLWCLVKGFYPSDIAVEWESNGQPENNYKTTPPVLDSDGSFFLYSKLTVDKSRWQQGNVFSCSVMHEALHNHYTQKSLSLSPGK
chain 2: EVQLVETGGGLIQPGGSLRLSCAASGFPVSSNYMSWVRQAPGKGLEWVSVIFSGGRTYYADSVKGRFTISRDNSKNTLYLQMNSLRAEDTAVYYCARRNWIDGRDAFDIWGQGTMVTVSSASEPKSSDKTHTCPPCPAPEAAGGPSVFLFPPKPKDTLMISRTPEVTCVVVDVSHEDPEVKFNWYVDGVEVHNAKTKPREEQYNSTYRVVSVLTVLHQDWLNGKEYKCKVSNKALGAPIEKTISKAKGQPREPQVCTLPPSREEMTKNQVSLSCAVKGFYPSDIAVEWESNGQPENNYKTTPPVLDSDGSFFLVSKLTVDKSRWQQGNVFSCSVMHEALHNHYTQKSLSLSPGK
notes: BCMAxCD3, scFv(VL-VH)-Fc-VH (structure 20); CD3 scFv of PR000510, BCMA VH of PR000943; IgG1 knob/hole, AAG

What is called EC50 is the concentration that produces a half-maximal response.

This experiment has as its target T1, human BCMA. The experiment is described as follows: FACS on NCI-H929 cells.
Procedure: This example is intended to investigate the binding activity of anti-BCMA HCAb antibodies to human and cynomolgus monkey BCMAs. […] Specifically, HEK293T/hBCMA cells and HEK293T/cyno BCMA cells were digested and resuspended in a DMEM complete medium. In addition, NCI-H929 cell suspension was collected. The density of each of the three cells was adjusted to 1×10⁶ cells/mL. […] The cells were incubated at 4° C. for 1 h away from light. Thereafter, the cells in each well were rinsed twice with 100 μL of pre-cooled PBS, and centrifuged at 500 g at 4° C. for 5 min, and then the supernatant was discarded. […] The cells in each well were rinsed twice with 100 μL of pre-cooled PBS, and centrifuged at 500 g at 4° C. for 5 min, and then the supernatant was discarded. Finally, the cells in each well were resuspended in 200 μL of pre-cooled PBS. Fluorescence signal values were read using a BD FACS CANTOII flow cytometer or an ACEA NovoCyte flow cytometer, and the data were processed and analyzed using FlowJo v10 (FlowJo, LLC) software. The data were processed and analyzed by plotting using GraphPad Prism 8 software, and binding curves of the antibodies to target cells, EC₅₀ values and other parameters were obtained through four-parameter nonlinear fitting.
With B1, the “Maximum MFI” value came out at 3480.

With B2, the 50% effective concentration (EC50) was found to be 1.1 nM and the “Maximum MFI” value is 11300.

On to B3, for which the midpoint of the response, the EC50, lay at 1.5 nM and the “Maximum MFI” value is 11000. For the molecule B4, the “Maximum MFI” value came out at 4500. Same read-out and setting: under B5 stands 1460.

As for B6, the “Maximum MFI” value worked out at 3260.

In the case of B7, the “Maximum MFI” value is 4640.

The values are drawn from patent publication US20230322953A1 (HARBOUR BIOMED SHANGHAI, published 2023).
